Laboratory results: US20230038883A1, “SPECIFIC HOST FACTOR OF HEPATITIS B VIRUS INFECTION, AND USE THEREOF” (priority 2020, published 2023)

How the values were obtained:
SCARF2 EGF4-6 proteins = target: T1, SCARF2 EGF4-6 proteins (Homo sapiens, UniProt Q96GP6); assay: immunoprecipitation of biotin labeled preS1 polypeptides with SCARF2 EGF4-6; format: binding
T1 construct: Precision (protease site) tag (internal); human Fc tag (IgG1) (C); made in house; host or cells: 293F cells (pCAGGs vector), purified with Protein A beads
T1 sequence (Q96GP6 183-270): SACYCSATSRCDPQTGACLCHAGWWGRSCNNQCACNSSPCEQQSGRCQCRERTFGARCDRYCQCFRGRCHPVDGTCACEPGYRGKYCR
Excerpt: Compared with SVPs, the virus particles were rich in L protein, and the main functional segment of L protein was the preS1 segment; it was therefore speculated that the SCARF2 EGF4-6 proteins interact with the preS1 segment of the L protein of the virus. […] The C-terminus of each of the synthesized peptides was biotin labeled.

[1] = target: polypeptide containing amino acids 69-108 of preS1 (peptide^69-108) (hepatitis B virus); assay: ForteBio Octet; sensorgrams at 200, 100, 50 and 25 µg/mL
[2] = target: polypeptide containing amino acids 69-108 of preS1 (peptide^69-108) (hepatitis B virus); assay: ForteBio Octet (BLI), biotin-labeled peptide
HBV [3] = assay: HBV infection of HepG2-NTCP cells transduced with CREBH and truncated forms (ELISA, HBcAg staining); format: cell-based; settings: transduced before infection; for HBV infection efficiency (ELISA): 1% PEG and 5% PEG, compared with PWPI-B empty control
Experimental: HepG2-NTCP cells were transduced with lentivirus embedded with CREBH and truncated forms thereof. After 24 hours, the cells were re-seeded in a culture plate, and the culture medium was changed to PMM. After 24 hours, the cells were infected with HBV in the presence of 1% PEG and 5% PEG respectively. Supernatant was collected every 2 days and assayed using an ELISA kit.
HBcAg staining was also performed in the experiments, and results were consistent with the ELISA results. […] It was thus speculated that these two truncated forms might have exerted a dominant-negative effect.

SCARF2 gene = assay: SCARF2 expression after transduction of CREBH and truncated forms (mRNA sequencing, quantitative PCR); format: cell-based; settings: HepG2-NTCP cells transduced
Excerpt: Since the results of the infection occurred after the transduction of truncated forms of CREBH indicate that the transcriptional activation function of CREBH is necessary for enhancement of the infection, and the shortest functional truncated form CREBH-122-318 is localized on the nucleus, it is inferred that it is by activating a downstream gene that CREBH enhances HBV entry. In order to more accurately determine the downstream major gene, HepG2-NTCP cells transduced with CREBH, CREBH-122, CREBH-307, CREBH-122-318, CREBH-211-318, PWPI-B, and PMM were selected and used for transcriptome sequencing experiments. Meanwhile, CREBH siRNA-2 was selected and used to knock down CREBH in HepG2-NTCP cells. siNC was used as a negative control. Changes in transcriptomes were detected.
The same conclusion was also made from subsequent experiments using quantitative PCR, and the expression levels of SCARF2 were completely consistent with the enhancement effects of CREBH and its various truncated forms on HBV infection observed in the previous text.

NTCP mRNA = NTCP mRNA level under CREBH overexpression; format: cell-based; settings: overexpression in HepG2-NTCP
Excerpt: NTCP is a key receptor in HBV infection and can directly bind to the PreS1 region on the virus. Many factors capable of affecting HBV infection may indirectly affect HBV infection by affecting the expression level or cellular localization of NTCP. In order to detect whether CREBH enhances HBV infection by affecting NTCP, changes in NTCP mRNA level under the condition of overexpressing CREBH was first detected.

APOA4 gene = assay: relative expression of APOA4 after transduction of truncated forms into HepG2-NTCP cells; format: cell-based
Experimental: In order to detect whether each truncated form still had transcriptional activation ability, experiments were conducted by using the activation of APOA4 gene reported in the literature as an indicator of the transcriptional activation ability of CREBH. After the truncated forms were transduced into HepG2-NTCP cells, relative expression of APOA4 was detected. […] CREBH-C also had relatively high activation efficiency, which however was about ⅓ of the activation efficiency of the full-length CREBH.

HBV [4] = assay: cDNA library screening by HBV infection of HepG2-NTCP cells in 1% PEG; format: cell-based
Experimental: The cDNA library was prepared by packaging lentivirus, with HepG2-NTCP cells expressing the cDNA clones being packaged therein. After 24 hours, infection was conducted with HBV at a same tier in the presence of 1% PEG. Culture supernatant was collected every 2 days, and was tested with HBeAg and HBsAg kits.

hepatitis D virus (HDV) = assay: HDV infection; format: cell-based
Excerpt: This phenomenon can be explained and discussed from the following aspects. First, the present invention finds that HDV infection is more dependent on the expression of NTCP on the cell membrane than HBV infection, and HDV infection can occur more easily at a low PEG concentration. Although HDV and HBV have the same viral outer membrane, HDV can be assembled in the absence of L protein. […] Second, SCARF2 contains, at its C-terminus, a signal that can lead to its localization to the nuclear membrane, and a mutant with deletion of the C-terminal Proline-rich domain cannot enhance the infection.

HBV [5] = assay: HBV infection of HepG2-NTCP cells overexpressing SCARF2; format: cell-based
Experimental: FIGS. 8A, 8B, and 8C are schematic diagrams showing the effects of transduction of SCARF2 on infection in Example 6. (FIG. 8A) HepG2-NTCP cells were transduced with SCARF2, CREBH-122, or PWPI, and then infected with HBV in the presence of 1% PEG. (FIG. 8B) HepG2-NTCP cells were transduced with SCARF2, CREBH-122, or PWPI, and then infected with HBV in the presence of 5% PEG. (FIG. 8C) Nuclear and cytoplasmic fractions of the cells at 0 hour, 6 hours, 24 hours, and 72 hours after infection were isolated, and content of HBV DNA in each of the fractions was detected by southern-blot.
In the present invention, SCARF2 was first overexpressed in HepG2-NTCP cell line to test the effects of SCARF2 on HBV infection. […] Meanwhile, from HepG2-NTCP cell line stably expressing SCARF2, HBV DNA was isolated for analysis from the cytoplasm and the nucleus at different time points of HBV infection.

[6] = HepG2-NTCP stably expressing SCARF2, southern-blot

Chain of polypeptide containing amino acids 69-108 of preS1 (peptide^69-108) (hepatitis B virus) (P03138 69-108): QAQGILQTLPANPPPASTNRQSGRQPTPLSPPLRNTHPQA

Molecule	HBV infection efficiency (ELISA) (HBV [3])	expression of SCARF2 (SCARF2 gene)	NTCP mRNA level (NTCP mRNA)	activation of APOA4 gene (relative expression) (APOA4 gene)	HDV infection (hepatitis D virus (HDV))	also measured
CC[C@H](C)[C@H](NC(=O)CNC(=O)[C@H](CCC(N)=O)NC(=O)[C@H](C)NC(=O)[C@@H](N)CCC(N)=O)C(=O)N[C@@H](CC(C)C)C(=O)N[C@@H](CCC(N)=O)C(=O)N[C@H](C(=O)N[C@@H](CC(C)C)C(=O)N1CCC[C@H]1C(=O)N[C@@H](C)C(=O)N[C@@H](CC(N)=O)C(=O)N1CCC[C@H]1C(=O)N1CCC[C@H]1C(=O)N1CCC[C@H]1C(=O)N[C@@H](C)C(=O)N[C@@H](CO)C(=O)N[C@H](C(=O)N[C@@H](CC(N)=O)C(=O)N[C@@H](CCCNC(=N)N)C(=O)N[C@@H](CCC(N)=O)C(=O)N[C@@H](CO)C(=O)NCC(=O)N[C@@H](CCCNC(=N)N)C(=O)N[C@@H](CCC(N)=O)C(=O)N1CCC[C@H]1C(=O)N[C@H](C(=O)N1CCC[C@H]1C(=O)N[C@@H](CC(C)C)C(=O)N[C@@H](CO)C(=O)N1CCC[C@H]1C(=O)N1CCC[C@H]1C(=O)N[C@@H](CC(C)C)C(=O)N[C@@H](CCCNC(=N)N)C(=O)N[C@@H](CC(N)=O)C(=O)N[C@H](C(=O)N[C@@H](Cc1c[nH]cn1)C(=O)N1CCC[C@H]1C(=O)N[C@@H](CCC(N)=O)C(=O)N[C@@H](C)C(=O)O)[C@@H](C)O)[C@@H](C)O)[C@@H](C)O)[C@@H](C)O [peptide^69-108]	–	–	–	–	–	binding to SCARF2 EGF4-6 proteins (SCARF2 EGF4-6 proteins): specifically bound
SCARF2 EGF4-6 protein (from UniProt Q96GP6 183-270) (Fc fusion)	–	–	–	–	–	koff [1]: 0.000289 s⁻¹; kon [1]: 4970 M⁻¹ s⁻¹; Kd [2]: 58 nM
CREBH: cAMP-responsive element-binding protein, hepatocyte specific; SEQ ID NO:1; expressed by lentiviral transduction (protein, listed as Homo sapiens) MNTDLAAGKMASAACSMDPIDSFELLDLLFDRQDGILRHVELGEGWGHVKDQQVLPNPDSDDFLSSILGSGDSLPSSPLWSPEGSDSGISEDLPSDPQDTPPRSGPATSPAGCHPAQPGKGPCLSYHPGNSCSTTTPGPVIQVPEASVTIDLEMWSPGGRICAEKPADPVDLSPRCNLTVKDLLLSGSSGDLQQHHLGASYLLRPGAGHCQELVLTEDEKKLLAKEGITLPTQLPLTKYEERVLKKIRRKIRNKQSAQESRKKKKEYIDGLETRMSACTAQNQELQRKVLHLEKQNLSLLEQLKKLQAIVVQSTSKSAQTGTCVAVLLLSFALIILPSISPFGPNKTESPGDFAPVRVFSRTLHNDAASRVAADAVPGSEAPGPRPEADTTREESPGSPGADWGFQDTANLTNSTEELDNATLVLRNATEGLGQVALLDWVAPGPSTGSGRAGLEAAGDEL	increase the infection efficiency	can up-regulate the expression of SCARF2 gene, but not to a very significant level	slightly down-regulated	strongest activation effect	neither of CREBH and SCARF2 can enhance	number of HBcAg-positive cells (HBV [4]; HBcAg staining): remarkably increases; HBV infection (HBeAg, HBsAg in supernatant) (HBV [4]; HepG2-NTCP cells expressing cDNA clone, 1% PEG): remarkably enhances HBV infection
CREBH-122-318: truncated form of CREBH, residues 122-318, SEQ ID NO:3 (protein) MCLSYHPGNSCSTTTPGPVIQVPEASVTIDLEMWSPGGRICAEKPADPVDLSPRCNLTVKDLLLSGSSGDLQQHHLGASYLLRPGAGHCQELVLTEDEKKLLAKEGITLPTQLPLTKYEERVLKKIRRKIRNKQSAQESRKKKKEYIDGLETRMSACTAQNQELQRKVLHLEKQNLSLLEQLKKLQAIVVQSTSKSA	increase the infection efficiency	significantly up-regulates SCARF2	slightly down-regulated	capable of activating APOA4 gene to some extent	–	–
CREBH-211-318: truncated form of CREBH, residues 211-318, SEQ ID NO:4, expresses only the bZIP domain (protein) QELVLTEDEKKLLAKEGITLPTQLPLTKYEERVLKKIRRKIRNKQSAQESRKKKKEYIDGLETRMSACTAQNQELQRKVLHLEKQNLSLLEQLKKLQAIVVQSTSKSA	–	does not lead to a change in SCARF2 expression	–	–	–	HBV infection (HBcAg staining, consistent with ELISA) (HBV [3]): to some certain extent inhibited the infection
SCARF2: Scavenger receptor family F protein, SEQ ID NO:8, overexpressed in HepG2-NTCP cells (protein, listed as Homo sapiens) MEGAGPRGAGPARRRGAGGPPSPLLPSLLLLLLLWMLPDTVAPQELNPRGRNVCRAPGSQVPTCCAGWRQQGDECGIAVCEGNSTCSENEVCVRPGECRCRHGYFGANCDTKCPRQFWGPDCKELCSCHPHGQCEDVTGQCTCHARRWGARCEHACQCQHGTCHPRSGACRCEPGWWGAQCASACYCSATSRCDPQTGACLCHAGWWGRSCNNQCACNSSPCEQQSGRCQCRERTFGARCDRYCQCFRGRCHPVDGTCACEPGYRGKYCREPCPAGFYGLGCRRRCGQCKGQQPCTVAEGRCLTCEPGWNGTKCDQPCATGFYGEGCSHRCPPCRDGHACNHVTGKCTRCNAGWIGDRCETKCSNGTYGEDCAFVCADCGSGHCDFQSGRCLCSPGVHGPHCNVTCPPGLHGADCAQACSCHEDTCDPVTGACHLETNQRKGVMGAGALLVLLVCLLLSLLGCCCACRGKDPTRRPRPRRELSLGRKKAPHRLCGRFSRISMKLPRIPLRRQKLPKVVVAHHDLDNTLNCSFLEPPSGLEQPSPSWSSRASFSSFDTTDEGPVYCVPHEEAPAESRDPEVPTVPAEAPAPSPVPLTTPASAEEAIPLPASSDSERSASSVEGPGGALYARVARREARPARARGEIGGLSLSPSPERRKPPPPDPATKPKVSWIHGKHSAAAAGRAPSPPPPGSEAAPSPSKRKRTPSDKSAHTVEHGSPRTRDPTPRPPGLPEEATALAAPSPPRARARGRGPGLLEPTDAGGPPRSAPEAASMLAAELRGKTRSLGRAEVALGAQGPREKPAPPQKAKRSVPPASPARAPPATETPGPEKAATDLPAPETPRKKTPIQKPPRKKSREAAGELGRAGAPTL	–	–	–	–	neither of CREBH and SCARF2 can enhance	HBV infection (HBV [5]; 1% PEG or 5% PEG): can enhance HBV infection; HBV DNA in fractions of the cytoplasm (HBV [5]; [6]): slightly increased; rcDNA and cccDNA in fractions of the nucleus (HBV [5]; [6]): significantly increased
